Experimental data from patent publication US20250376533A1 (FUTUREGEN BIOPHARMACEUTICAL BEIJING, published 2025).
Where a chain is given by its changes, count along the chain named. Names may count otherwise.

T1: rat CD40 antigen (ACROBiosystems) (rat, UniProt A6JXD6 20-193)
T1 construct: Bought antigen coated on ELISA plates; construct not described
T1 sequence: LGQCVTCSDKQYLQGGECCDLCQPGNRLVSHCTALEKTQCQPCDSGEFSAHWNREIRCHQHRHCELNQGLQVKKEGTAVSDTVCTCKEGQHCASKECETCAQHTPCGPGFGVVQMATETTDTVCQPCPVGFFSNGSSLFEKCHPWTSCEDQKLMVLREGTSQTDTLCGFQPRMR

B1: anti-PD-L1/CD40 bispecific antibody 1653 (bispecific antibody, human IgG2, kappa)
light: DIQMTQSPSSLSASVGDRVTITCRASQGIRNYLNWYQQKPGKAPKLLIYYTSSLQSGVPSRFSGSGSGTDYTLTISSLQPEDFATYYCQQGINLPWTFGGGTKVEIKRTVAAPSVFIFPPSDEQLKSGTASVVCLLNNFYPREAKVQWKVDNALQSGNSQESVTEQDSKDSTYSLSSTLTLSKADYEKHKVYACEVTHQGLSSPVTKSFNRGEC
heavy: EVQLVESGGGLVQPGGSLRLSCAASGFTFSDYYMSWVRQAPGKGLEWVGFIRNKANAYTTEYAASVKGRFTISRDNSKSTLYLQMNSLRAEDTAVYYCARYGGLKKGWYFDLWGQGTLVTVSSASTKGPSVFPLAPCSRSTSESTAALGCLVKDYFPEPVTVSWNSGALTSGVHTFPAVLQSSGLYSLSSVVTVPSSNFGTQTYTCNVDHKPSNTKVDKTVERKCCVECPPCPAPPVAGPSVFLFPPKPKDTLMISRTPEVTCVVVDVSHEDPEVQFNWYVDGVEVHNAKTKPREEQFNSTFRVVSVLTVVHQDWLNGKEYKCKVSNKGLPAPIEKTISKTKGQPREPQVYTLPPSREEMTKNQVSLTCLVKGFYPSDIAVEWESNGQPENNYKTTPPMLDSDGSFFLYSKLTVDKSRWQQGNVFSCSVMHEALHNHYTQKSLSLSPGGGGGSGGGGSGGGGSGEVQLVESGGGLVQPGGSLRLSCAASGFTFDYYTQCWFRQAPGKEREWVSCISSSEGSTYYADSVKGRFTISRDNSKNTVYLQMNSLKTEDTAVYYCAARKGGPLTIENFFDYWGQGTQVTVSS
notes: First polypeptide chain = anti-CD40 light chain; second polypeptide chain = anti-CD40 heavy chain with the 1541 VHH joined to its C-terminus by a G4S linker
B2: anti-PD-L1/CD40 bispecific antibody 1605 (bispecific antibody, human IgG2, kappa)
light: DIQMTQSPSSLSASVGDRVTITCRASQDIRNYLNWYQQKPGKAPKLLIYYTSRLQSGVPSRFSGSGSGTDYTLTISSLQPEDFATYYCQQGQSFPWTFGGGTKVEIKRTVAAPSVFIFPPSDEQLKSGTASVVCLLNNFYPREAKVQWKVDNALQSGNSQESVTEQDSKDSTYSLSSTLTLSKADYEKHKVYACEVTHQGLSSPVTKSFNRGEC
heavy: B1 heavy with D31N, G49A, L104I, K105R, K106V
notes: as for B1
B3: anti-CD40 monoclonal antibody 1653CD (antibody, human IgG2, kappa, V domains shown)
VH: EVQLVESGGGLVQPGGSLRLSCAASGFTFSDYYMSWVRQAPGKGLEWVGFIRNKANAYTTEYAASVKGRFTISRDNSKSTLYLQMNSLRAEDTAVYYCARYGGLKKGWYFDLWGQGTLVTVSS
VL: DIQMTQSPSSLSASVGDRVTITCRASQGIRNYLNWYQQKPGKAPKLLIYYTSSLQSGVPSRFSGSGSGTDYTLTISSLQPEDFATYYCQQGINLPWTFGGGTKVEIKR
B4: anti-CD40 monoclonal antibody 1608CD (antibody, human IgG2, kappa, V domains shown)
VH: B3 VH with D31N, A57G, S87R, K106V
VL: B3 VL with G28S, R30S, N34A, Y50A, T51A, I92S, N93S, L94Y
B5: anti-CD40 monoclonal antibody 1609CD (antibody, human IgG2, kappa, V domains shown)
VH: B3 VH with D31N, A57G, K106I
VL: B3 VL with G28T, R30S, N31S, S53T, I92N, N93A, L94Y
B6: anti-CD40 monoclonal antibody 1654CD (antibody, human IgG2, kappa, V domains shown)
VH: B3 VH with D31N, S87R, K106V
VL: B3 VL with G28S, R30S, N34A, Y50A, T51A, I92S, N93S, L94Y
B7: anti-CD40 monoclonal antibody 1607CD (antibody, human IgG2, kappa, V domains shown)
VH: B3 VH with A57G
VL: B3 VL
B8: anti-CD40 monoclonal antibody 1606CD (antibody, human IgG2, kappa, V domains shown)
VH: B3 VH with A57G, S79N, K105R, K106Q, L112V
VL: B3 VL with G28D, S53R, L54R, Q55D, Y87F, I92K, N93T
B9: anti-CD40 monoclonal antibody 1655CD (antibody, human IgG2, kappa, V domains shown)
VH: B3 VH with D31N, K106I
VL: B3 VL with G28T, R30S, N31S, S53T, I92N, N93A, L94Y
B10: anti-CD40 monoclonal antibody 1605CD (antibody, human IgG2, kappa, V domains shown)
VH: B3 VH with D31N, G49A, L104I, K105R, K106V
VL: B3 VL with G28D, S53R, I92Q, N93S, L94F
B11: anti-CD40 monoclonal antibody 1652CD (antibody, human IgG2, kappa, V domains shown)
VH: B3 VH with S79N, K105R, K106Q, L112V
VL: B3 VL with G28D, S53R, L54R, Q55D, Y87F, I92K, N93T

Target: T2, CD40 on HEK-Blue CD40L cells (InvivoGen) (UniProt P25942 21-277, limits assumed)
T2 sequence (P25942 21-277 limits assumed): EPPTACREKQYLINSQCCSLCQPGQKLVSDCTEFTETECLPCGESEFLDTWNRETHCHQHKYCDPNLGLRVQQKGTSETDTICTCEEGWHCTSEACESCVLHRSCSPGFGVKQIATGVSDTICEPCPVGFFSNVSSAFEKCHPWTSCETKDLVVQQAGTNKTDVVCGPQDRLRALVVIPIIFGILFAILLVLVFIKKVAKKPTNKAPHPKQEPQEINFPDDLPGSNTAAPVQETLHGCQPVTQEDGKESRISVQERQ
Test: cell-based or functional assay

CD40 agonistic activity (A)/(B) Ratio, EC50 without over with CHO/PD-L1	CD40 agonistic activity EC50 (nM) with CHO/PD-L1 (B), SEAP reporter [nM]	CD40 agonistic activity EC50 (nM) without CHO/PD-L1 (A), SEAP reporter [nM]	Binder
2.2	0.018	0.039	B1
3.2	0.024	0.075	B2

Target: T1, rat CD40 antigen (ACROBiosystems)
Test: ELISA, coated antigen
Procedure: (§1) The binding ability of bispecific antibody to human PD-L1 and human CD40, as well as the species specificity, was detected using an enzyme-linked immunosorbent assay (ELISA). The specific method is as follows: human PD-L1, cynomolgus PD-L1, rat PD-L1, mouse PD-L1, human CD40, cynomolgus CD40, rat CD40, and mouse CD40 antigens (all purchased from ACROBiosystems) were coated with 1 μg/mL carbonate buffer (pH=9.6) in an ELISA plate at 100 μL per well, followed by incubation at 4° C. overnight. The wells were washed 5 times with PBST. 300 μL/well of PBST containing 1% BSA was added to block the wells, and the plate was incubated at room temperature for 1 hour. The wells were washed 5 times with PBST. […] The wells were washed 5 times with PBST. […] The wells were washed 5 times with PBST. Colorimetric substrate TMB was added at 100 μL per well and allowed to develop color at room temperature for 10 minutes, followed by the addition of 1 M sulfuric acid to terminate the reaction. The OD_{450 nm} was read on a microplate reader to analyze the results, and the EC₅₀ was calculated using a 4-parameter fit binding curve.
(§2) These bispecific antibodies are not able to bind to rat PD-L1 and CD40 or mouse PD-L1 and CD40.

binding result	Binder
no binding	B1
no binding	B2

Target: T3, mouse CD40 antigen (ACROBiosystems) (mouse, UniProt P27512 24-193, limits assumed)
T3 construct: Bought antigen coated on ELISA plates; construct not described
T3 sequence (P27512 24-193 limits assumed): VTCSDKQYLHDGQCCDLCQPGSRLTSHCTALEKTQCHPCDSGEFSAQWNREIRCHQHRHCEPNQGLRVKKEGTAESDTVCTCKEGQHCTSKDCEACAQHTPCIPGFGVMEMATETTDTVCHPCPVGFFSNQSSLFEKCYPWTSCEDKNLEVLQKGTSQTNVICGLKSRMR
Test: ELISA, coated antigen
Procedure: as §1, §2

binding result	Binder
no binding	B1
no binding	B2

Target: T4, cynomolgus CD40 antigen (ACROBiosystems) (cynomolgus, UniProt G7PG38 21-193)
T4 construct: Bought antigen coated on ELISA plates; construct not described
Test: ELISA, coated antigen
Procedure: as §1, §2

EC50 [pM]	Binder
18	B1
20	B2

Target: T5, rat PD-L1 antigen (ACROBiosystems) (rat, UniProt D4AE25 19-239)
T5 construct: Bought antigen coated on ELISA plates; construct not described
T5 sequence (D4AE25 entry or part of it limits assumed): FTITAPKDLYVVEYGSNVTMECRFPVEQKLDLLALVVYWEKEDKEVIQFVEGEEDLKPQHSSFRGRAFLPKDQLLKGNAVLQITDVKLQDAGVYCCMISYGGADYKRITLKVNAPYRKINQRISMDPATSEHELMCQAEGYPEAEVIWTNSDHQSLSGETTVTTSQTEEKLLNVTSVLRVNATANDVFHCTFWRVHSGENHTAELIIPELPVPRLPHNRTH
Test: ELISA, coated antigen
Procedure: as §1, §2

binding result	Binder
no binding	B1
no binding	B2

Target: T6, human PD-L1 antigen (ACROBiosystems) (human, UniProt Q9NZQ7 19-238)
T6 construct: Bought antigen coated on ELISA plates
T6 sequence (Q9NZQ7 19-238 limits assumed): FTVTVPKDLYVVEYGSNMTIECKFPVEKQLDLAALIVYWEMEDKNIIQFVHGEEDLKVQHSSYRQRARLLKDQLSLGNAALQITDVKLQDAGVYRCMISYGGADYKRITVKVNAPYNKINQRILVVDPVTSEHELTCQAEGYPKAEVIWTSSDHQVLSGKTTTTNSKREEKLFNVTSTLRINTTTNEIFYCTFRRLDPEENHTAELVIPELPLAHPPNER
Test: ELISA, coated antigen
Procedure: as §1, §2

EC50 [pM]	Binder
39	B1
50	B2

Target: T7, cynomolgus PD-L1 antigen (ACROBiosystems) (cynomolgus, UniProt G7PSE7 19-238)
T7 construct: Bought antigen coated on ELISA plates; construct not described
T7 sequence (G7PSE7 entry or part of it): as the sequence (Q9NZQ7 19-238 limits assumed) above, with A33T, A34S, S62N, R68Q, Q82R, F173L, T185A, T192I, H215L counted along it
Test: ELISA, coated antigen
Procedure: as §1, §2

EC50 [pM]	Binder
21	B1
25	B2

Target: T8, human CD40 antigen (ACROBiosystems) (human, UniProt P25942 21-193)
T8 construct: Bought antigen coated on ELISA plates; construct not described
T8 sequence (P25942 21-193 limits assumed): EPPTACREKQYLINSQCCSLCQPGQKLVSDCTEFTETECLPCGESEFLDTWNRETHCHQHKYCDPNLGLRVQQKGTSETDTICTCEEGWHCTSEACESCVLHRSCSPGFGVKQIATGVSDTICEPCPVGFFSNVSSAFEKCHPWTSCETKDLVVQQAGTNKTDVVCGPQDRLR
Test: ELISA, coated antigen
Procedure: as §1, §2

EC50 [pM]	Binder
20	B1
24	B2

Target: T9, mouse PD-L1 antigen (ACROBiosystems) (mouse, UniProt Q9EP73 19-239)
T9 construct: Bought antigen coated on ELISA plates; construct not described
T9 sequence (Q9EP73 19-239 limits assumed): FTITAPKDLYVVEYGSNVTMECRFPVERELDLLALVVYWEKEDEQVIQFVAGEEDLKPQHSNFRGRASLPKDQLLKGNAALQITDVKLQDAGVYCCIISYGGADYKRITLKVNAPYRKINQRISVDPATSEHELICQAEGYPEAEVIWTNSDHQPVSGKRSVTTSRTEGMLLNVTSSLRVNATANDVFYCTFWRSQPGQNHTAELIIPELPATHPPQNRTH
Test: ELISA, coated antigen
Procedure: as §1, §2

binding result	Binder
no binding	B1
no binding	B2

Target: T2, CD40 on HEK-Blue CD40L cells (InvivoGen)
Test: flow cytometry, competition with 10 nM Biotin-CD40L on HEK-Blue CD40L cells
Procedure: The blocking effect of bispecific antibodies on CD40/CD40L binding was tested using HEK-Blue CD40L cells that highly express CD40. The specific method is as follows: HEK-Blue CD40L cells were collected and resuspended in pre-cooled PBS containing 2% FBS at a density of 1E7 cells/mL, and then added to a 96-well plate at 50 μL per well, i.e., 5E5 cells/well. Biotin-CD40L (FutureGen Biopharmaceutical) and serially diluted bispecific antibody were then added at 50 μL per well, with a final concentration of Biotin-CD40L of 10 nM, and the plate was incubated at 4° C. for 1 hour. The wells were washed twice with pre-cooled PBS. Streptavidin-PE (BioLegend, Cat. No. 405203) diluted in pre-cooled PBS containing 2% FBS was added, and the plate was incubated at 4° C. for 30 minutes. The wells were washed twice with pre-cooled PBS. The cells were then resuspended in pre-cooled PBS containing 2% FBS and assayed by flow cytometry.

IC50 [pM]	Binder
807	B1
1090	B2

Target: T1, rat CD40 antigen (ACROBiosystems)
Test: ELISA, coated antigen
Remark: another data set of the same source
Procedure: as §1, with “monoclonal” for “bispecific”, “to” for “to human PD-L1 and”, “follows:” for “follows: human PD-L1, cynomolgus PD-L1, rat PD-L1, mouse PD-L1,”, “OD₄₅₀ nm” for “OD_{450 nm}”

binding result	Binder
no binding	B3
no binding	B4
no binding	B5
no binding	B6
no binding	B7
no binding	B8
no binding	B9
no binding	B10
no binding	B11

Target: T3, mouse CD40 antigen (ACROBiosystems)
Test: ELISA, coated antigen
Remark: another data set of the same source
Procedure: as §1, with “monoclonal” for “bispecific”, “to” for “to human PD-L1 and”, “follows:” for “follows: human PD-L1, cynomolgus PD-L1, rat PD-L1, mouse PD-L1,”, “OD₄₅₀ nm” for “OD_{450 nm}”

binding result	Binder
no binding	B3
no binding	B4
no binding	B5
no binding	B6
no binding	B7
no binding	B8
no binding	B9
no binding	B10
no binding	B11

Target: T4, cynomolgus CD40 antigen (ACROBiosystems)
Test: ELISA, coated antigen
Remark: another data set of the same source
Procedure: as §1, with “monoclonal” for “bispecific”, “to” for “to human PD-L1 and”, “follows:” for “follows: human PD-L1, cynomolgus PD-L1, rat PD-L1, mouse PD-L1,”, “OD₄₅₀ nm” for “OD_{450 nm}”

EC50 [pM]	Binder
18	B3
21	B4
20	B5
15	B6
17	B7
20	B8
9	B9
21	B10
18	B11

Target: T8, human CD40 antigen (ACROBiosystems)
Test: ELISA, coated antigen
Remark: another data set of the same source
Procedure: as §1, with “monoclonal” for “bispecific”, “to” for “to human PD-L1 and”, “follows:” for “follows: human PD-L1, cynomolgus PD-L1, rat PD-L1, mouse PD-L1,”, “OD₄₅₀ nm” for “OD_{450 nm}”

EC50 [pM]	Binder
20	B3
22	B4
22	B5
14	B6
21	B7
24	B8
24	B9
22	B10
22	B11

Target: T8, human CD40 antigen (ACROBiosystems)
Test: bridging ELISA: coated human CD40, serially diluted bispecific antibody, detection with biotin-labeled human PD-L1 and streptavidin-HRP, OD450
Procedure: Antigen human CD40 (purchased from ACROBiosystems) was coated with 1 μg/mL carbonate buffer (pH=9.6) in an ELISA plate at 100 μL per well, followed by incubation at 4° C. overnight. The wells were washed 5 times with PBST. 300 μL/well of PBST containing 1% BSA was added to block the wells, and the plate was incubated at room temperature for 1 hour. The wells were washed 5 times with PBST. […] The wells were washed 5 times with PBST. Biotin-labeled human PD-L1 (FutureGen Biopharmaceutical) diluted with PBST containing 1% BSA was added at 100 μL per well, and the plate was incubated at room temperature for 1 hour. The wells were washed 5 times with PBST. Streptavidin-HRP (BioLegend, Cat. No. 405210) diluted with PBST containing 1% BSA was added at 100 μL per well, and the plate was incubated at room temperature for 30 minutes. Colorimetric substrate TMB was added at 100 μL per well and allowed to develop color at room temperature for 10 minutes, followed by the addition of 1 M sulfuric acid to terminate the reaction. The OD_[…] was read on a microplate reader to analyze the results, and the EC₅₀ was calculated using a 4-parameter fit binding curve.

EC50 [pM]	Binder
39	B1
38	B2
